Measurements as given in publication PMC4155688, “Mapping the Putative G Protein-coupled Receptor (GPCR) Docking Site on GPCR Kinase 2” (The Journal of Biological Chemistry, 2014).
Residue numbers refer to the chain shown, from its start. Names and notes keep the numbering of the source.

What was measured:
[1] = biological target: T1, α2AAR-GFP^2 (UniProt P08913 1-465); assay: FRET or BRET; living HEK293T cells co-transfected with α2AAR-GFP^2 and RlucII-GRK2; dose-response to norepinephrine read 6 min after addition; NOR-promoted BRET fitted to biphasic (two-site) curves with a high-affinity and a low-affinity component; details: partners not purified
T1 construct: α2A-adrenergic receptor; also called α2A-adrenergic receptor; source: HEK293T, transfected, in living cells; not shown: GFP^2, C-terminal (from the name α2AAR-GFP^2), kept
T1 sequence (looked up): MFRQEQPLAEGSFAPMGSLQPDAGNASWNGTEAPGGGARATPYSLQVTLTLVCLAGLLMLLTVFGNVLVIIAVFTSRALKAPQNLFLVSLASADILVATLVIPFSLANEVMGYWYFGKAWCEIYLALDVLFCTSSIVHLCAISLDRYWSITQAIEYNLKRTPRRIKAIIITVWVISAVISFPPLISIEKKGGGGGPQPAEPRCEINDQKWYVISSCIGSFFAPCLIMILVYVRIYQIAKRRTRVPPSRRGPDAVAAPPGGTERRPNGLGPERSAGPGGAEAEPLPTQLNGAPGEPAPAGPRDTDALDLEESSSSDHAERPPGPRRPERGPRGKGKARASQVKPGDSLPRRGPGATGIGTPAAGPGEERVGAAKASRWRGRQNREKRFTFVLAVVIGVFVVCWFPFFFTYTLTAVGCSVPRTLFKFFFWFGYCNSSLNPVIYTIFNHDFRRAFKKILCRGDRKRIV

[2] = biological target: T1, α2AAR-GFP^2; assay: FRET or BRET; living HEK293T cells co-transfected with α2AAR-GFP^2 (acceptor) and RlucII-GRK2 (donor); in PBS at room temperature, with or without 100 μM norepinephrine (one-point and titration: 6 min; time course); coelenterazine 400A 5 μM; net or agonist-promoted BRET; details: partners not purified

B1: RlucII-GRK2 (wild type) (enzyme, human, UniProt P25098 1-689, looked up)
chain: MADLEAVLADVSYLMAMEKSKATPAARASKKILLPEPSIRSVMQKYLEDRGEVTFEKIFSQKLGYLLFRDFCLNHLEEARPLVEFYEEIKKYEKLETEEERVARSREIFDSYIMKELLACSHPFSKSATEHVQGHLGKKQVPPDLFQPYIEEICQNLRGDVFQKFIESDKFTRFCQWKNVELNIHLTMNDFSVHRIIGRGGFGEVYGCRKADTGKMYAMKCLDKKRIKMKQGETLALNERIMLSLVSTGDCPFIVCMSYAFHTPDKLSFILDLMNGGDLHYHLSQHGVFSEADMRFYAAEIILGLEHMHNRFVVYRDLKPANILLDEHGHVRISDLGLACDFSKKKPHASVGTHGYMAPEVLQKGVAYDSSADWFSLGCMLFKLLRGHSPFRQHKTKDKHEIDRMTLTMAVELPDSFSPELRSLLEGLLQRDVNRRLGCLGRGAQEVKESPFFRSLDWQMVFLQKYPPPLIPPRGEVNAADAFDIGSFDEEDTKGIKLLDSDQELYRNFPLTISERWQQEVAETVFDTINAETDRLEARKKAKNKQLGHEEDYALGKDCIMHGYMSKMGNPFLTQWQRRYFYLFPNRLEWRGEGEAPQSLLTMEEIQSVEETQIKERKCLLLKIRGGKQFILQCDSDPELVQWKKELRDAYREAQQLVQRVPKMKNKPRSPVVELSKVPLVQRGSANGL
notes: G protein-coupled receptor kinase 2 (GRK2), human; also called luciferase-GRK2; WT RlucII-GRK2; source: HEK293T, transfected, in living cells
EC50,L of norepinephrine (low-affinity component of the biphasic BRET curve) [1]: 7.9 µM

B2: RlucII-GRK2 L4A (enzyme, human, UniProt P25098 1-689, looked up)
chain: B1 chain with L4A
notes: GRK2, human; source: HEK293T, transfected, in living cells
percent reduction of the low-affinity BRET component relative to WT [1]: ~70% | percent reduction of the agonist-promoted BRET relative to WT [2]: ~55%

B3: RlucII-GRK2 R195A (enzyme, human, UniProt P25098 1-689, looked up)
chain: B1 chain with R195A
notes: as for B2
percent reduction of the low-affinity BRET component relative to WT [1]: ~60% | percent reduction of the agonist-promoted BRET signal relative to WT [2]: 60%

B4: RlucII-GRK2 S12A (enzyme, human, UniProt P25098 1-689, looked up)
chain: B1 chain with S12A
notes: as for B2
fold stimulation of the low-affinity BRET component relative to WT [1]: 2.6 fold | fold potentiation of the total agonist-induced BRET relative to WT [2]: 2 fold

B5: RlucII-GRK2 V7E/L8E (enzyme, human, UniProt P25098 1-689, looked up)
chain: B1 chain with V7E, L8E
notes: as for B2
percent reduction of receptor recruitment (agonist-promoted BRET) relative to WT [2]: 69%

B6: RlucII-GRK2 V7P (enzyme, human, UniProt P25098 1-689, looked up)
chain: B1 chain with V7P
notes: as for B2
percent reduction of receptor recruitment (agonist-promoted BRET) relative to WT [2]: 60%

B7: RlucII-GRK2 V11A (enzyme, human, UniProt P25098 1-689, looked up)
chain: B1 chain with V11A
notes: as for B2
percent reduction of the agonist-promoted BRET relative to WT [2]: ~55%

B8: RlucII-GRK2 V477D (enzyme, human, UniProt P25098 1-689, looked up)
chain: B1 chain with V477D
notes: as for B2
percent inhibition of the high-agonist concentration BRET signal relative to WT [1]: 74%

B9: RlucII-GRK2 Y13A (enzyme, human, UniProt P25098 1-689, looked up)
chain: B1 chain with Y13A
notes: as for B2
percent reduction of the low-affinity BRET component relative to WT [1]: ~70% | percent reduction of the agonist-promoted BRET relative to WT [2]: ~55%
